Assay [1] deals with T1, full-length human Sp35 with an N-terminal HA tag (lysate of transfected COS-1 cells) (human, UniProt Q96FE5 40-620).
T1 construct: used here for all IP columns headed huSp35 / hLINGO-1; also called huSp35 (IP); hLINGO-1 (IP)
T1 sequence: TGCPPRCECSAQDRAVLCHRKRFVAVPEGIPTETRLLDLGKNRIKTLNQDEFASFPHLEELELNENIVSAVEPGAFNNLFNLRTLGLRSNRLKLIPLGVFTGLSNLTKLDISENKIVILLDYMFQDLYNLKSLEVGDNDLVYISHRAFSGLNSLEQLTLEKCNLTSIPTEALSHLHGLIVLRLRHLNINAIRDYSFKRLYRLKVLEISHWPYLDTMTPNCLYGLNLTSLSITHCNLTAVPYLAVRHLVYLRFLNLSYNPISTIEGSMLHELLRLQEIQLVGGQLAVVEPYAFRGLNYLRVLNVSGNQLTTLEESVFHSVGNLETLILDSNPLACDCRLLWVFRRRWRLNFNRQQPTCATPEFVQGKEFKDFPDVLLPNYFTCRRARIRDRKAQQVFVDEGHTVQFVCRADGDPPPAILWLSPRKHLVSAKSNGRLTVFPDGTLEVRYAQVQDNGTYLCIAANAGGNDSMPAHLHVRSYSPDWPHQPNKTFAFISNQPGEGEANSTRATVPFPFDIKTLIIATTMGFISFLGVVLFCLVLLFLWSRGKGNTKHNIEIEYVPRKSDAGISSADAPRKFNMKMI
In words: IP. The method, then: To perform the immunoprecipitation, COS-1 cells expressing Sp35, fused to a hemaglutinin (HA) tag on the N-terminus, were produced by transiently transfecting COS-1 cells with a DNA construct which expresses the full-length Sp35 protein with an HA tag. Cells were harvested 48 hr after transfection and were lysed in 1 ml lysis buffer (50 mM HEPES, pH 7.5, 150 mM NaCl, 1.5 mM MgCl₂, 1 mM EGTA, 1% Triton X-100 and 10% glycerol) for 30 min at 4° C. After centrifugation at 14,000×g for 15 min, the supernatants were incubated with ProteinA/G-Sepharose beads (Santa Cruz) at 4° C. for 1 hr, and then incubated at 4° C. for 1 hr with either the 1A7 or the 2F3 anti-Sp35 murine monoclonal antibodies. The beads were washed 3 times with lysis buffer, boiled in Laemmli sample buffer, subjected to 4-20% SDS-PAGE, and analyzed by Western blotting using an antibody which recognizes the HA tag. As shown on the SDS-PAGE gel, monoclonal antibodies 1A7 and 2F3, immunoprecipitated human and murine Sp35 (FIG. 1). […] Similarly, monoclonal antibodies 1G7, 2B10, 2F3, 3P4C2.2D2, 3P4C8.2G9, Li01, Li03, Li05, Li06, Li07, Li08, Li11, Li12, 7P1D5.1G9 and 3B5.2 immunoprecipitate human or mouse or human and mouse Sp35 (See Table 3B and 3C). Additionally, Li08 immunoprecipitates AP-Sp35 and monoclonal antibodies 1B6.4 and 3E3.1 immunoprecipitate endogenous Sp35 (See Table 3B).

Assay [2] deals with T2, human Sp35 protein (ELISA, Western, KD; form not stated) (human, UniProt Q96FE5 40-538, limits assumed).
T2 construct: also called huSp35; hLINGO-1
T2 sequence: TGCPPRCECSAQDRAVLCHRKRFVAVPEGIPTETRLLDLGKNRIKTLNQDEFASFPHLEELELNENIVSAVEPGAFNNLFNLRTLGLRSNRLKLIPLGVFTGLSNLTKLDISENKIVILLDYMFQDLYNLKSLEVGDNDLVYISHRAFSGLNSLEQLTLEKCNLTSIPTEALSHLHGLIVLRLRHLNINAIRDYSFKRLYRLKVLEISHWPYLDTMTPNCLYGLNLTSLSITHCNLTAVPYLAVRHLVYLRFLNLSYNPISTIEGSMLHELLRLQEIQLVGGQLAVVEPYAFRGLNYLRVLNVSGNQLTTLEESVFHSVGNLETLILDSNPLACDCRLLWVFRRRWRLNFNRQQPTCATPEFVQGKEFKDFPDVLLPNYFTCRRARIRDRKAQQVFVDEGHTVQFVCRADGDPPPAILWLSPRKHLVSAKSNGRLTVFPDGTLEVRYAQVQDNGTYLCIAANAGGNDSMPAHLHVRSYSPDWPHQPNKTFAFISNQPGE
Kind of assay: ELISA.

For assay [3], the target named is T3, Sp35-Fc fusion protein (human Sp35 residues 1-532 fused to hinge and Fc of human IgG1) (human, UniProt Q96FE5 40-538).
T3 construct: also called LINGO-1-Ig; LINGO-1-Fc; not shown: hinge and Fc region of human IgG1
T3 sequence: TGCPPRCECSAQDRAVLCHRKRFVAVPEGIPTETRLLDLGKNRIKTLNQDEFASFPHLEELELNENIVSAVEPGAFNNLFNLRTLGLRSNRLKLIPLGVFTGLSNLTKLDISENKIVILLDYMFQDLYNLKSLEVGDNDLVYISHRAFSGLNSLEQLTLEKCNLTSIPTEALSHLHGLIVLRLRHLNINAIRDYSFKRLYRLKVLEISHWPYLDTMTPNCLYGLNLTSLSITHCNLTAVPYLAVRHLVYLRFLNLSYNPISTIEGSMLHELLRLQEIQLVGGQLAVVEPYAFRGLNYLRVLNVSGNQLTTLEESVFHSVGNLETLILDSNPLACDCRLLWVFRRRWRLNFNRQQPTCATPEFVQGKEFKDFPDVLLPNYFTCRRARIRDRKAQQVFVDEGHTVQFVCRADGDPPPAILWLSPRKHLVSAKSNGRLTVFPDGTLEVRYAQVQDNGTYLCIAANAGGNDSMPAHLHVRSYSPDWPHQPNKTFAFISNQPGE
Kind of assay: ELISA. As for the experimental part: (§1) In order to determine which regions of the Sp35 polypeptide were bound by the various hybridoma- and phage display-derived monoclonal antibodies produced in Example 2, an ELISA assay was performed using a panel of truncated Sp35 polypeptides, each fused to the hinge and Fc regions of IgG1 by the methods described in Example 1. […] Ovalbumin and BSA were used as controls. […] The affinity of these latter antibodies for mouse and rat Sp35 was restored to the level seen using human Sp35 when amino acid 419 of the mouse or rat Sp35 is changed from histidine (H) to arginine (R). Arginine is the amino acid at position 419 in human Sp35. […] AP substrate was then developed by 10 mg/ml 4 NPP in 0.1 M Glycine, 1 mM MgCl₂, 1 mM ZnCl₂, pH 10.5, and read at O.D. 405.
(An ELISA detects its analyte on a solid surface through an enzyme-linked reagent.)

Assay [4] has as its target T4, Sp35 fragment 34-532 (ELISA) (human, UniProt Q96FE5 40-538).
T4 sequence: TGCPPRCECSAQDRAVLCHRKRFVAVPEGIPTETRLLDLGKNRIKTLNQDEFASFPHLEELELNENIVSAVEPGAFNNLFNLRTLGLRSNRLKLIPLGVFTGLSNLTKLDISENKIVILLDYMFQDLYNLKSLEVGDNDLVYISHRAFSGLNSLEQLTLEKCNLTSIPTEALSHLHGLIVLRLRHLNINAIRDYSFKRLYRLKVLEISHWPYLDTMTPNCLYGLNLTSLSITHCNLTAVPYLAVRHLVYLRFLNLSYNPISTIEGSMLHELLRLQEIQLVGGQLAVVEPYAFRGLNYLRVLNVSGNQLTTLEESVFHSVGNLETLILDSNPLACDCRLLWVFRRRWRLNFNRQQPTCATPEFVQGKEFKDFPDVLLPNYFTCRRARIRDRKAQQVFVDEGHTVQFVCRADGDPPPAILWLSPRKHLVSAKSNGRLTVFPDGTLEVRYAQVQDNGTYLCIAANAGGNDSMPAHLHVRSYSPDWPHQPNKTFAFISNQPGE
In words: ELISA. The method, then: as §1

B1: 35-E04 (Li03) Fab (Fab, V domains shown)
VH: EVQLLESGGGLVQPGGSLRLSCAASGFTFSQYPMEWVRQAPGKGLEWVSGIYPSGGSTVYADSVKGRFTISRDNSKNTLYLQMNSLRAEDTAVYYCARAGQWLGDFDYWGQGTLVTVSS
VL: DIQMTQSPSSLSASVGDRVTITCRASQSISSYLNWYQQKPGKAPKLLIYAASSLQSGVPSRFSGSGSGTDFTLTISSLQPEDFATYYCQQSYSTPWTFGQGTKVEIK
notes: human, kappa; also called Dli03
B1: the binding result in assay [1] and in assay [2] was “binds” throughout.

B2: 28-D02 (Li10) Fab (Fab, V domains shown)
VH: EVQLLESGGGLVQPGGSLRLSCAASGFTFSTYPMVWVRQAPGKGLEWVSWIGPSGGVTAYADSVKGRFTISRDNSKNTLYLQMNSLRAEDTAVYYCARPYSSGWWDFDLWGRGTLVTVSS
VL: DIQMTQSPSSMSASVGDTVTITCRASQGIGNWLAWYQQKPGKAPTLLIYAASSLESGVPSRFTGSGSSSGIDFTLTISDLHPEDLATYYCQQAQTFPLTFGGGTRVDLK
notes: human, kappa; also called Dli10
For B2, in assay [2], the binding result was “binds”.

B3: 3P1D10.2C3 (antibody, mouse IgG1, V domains shown)
VH: QVQLQQSGAELARPGASVKLSCRASGYTFTSSWTQWVKQRPGQGLEWIGAIYPGDGDTRYTQKFKGKATLTADKSSSTAYMQLSSLASEDSAVYYCARHNSYGMDYWGQGTSVTVSS
VL: DIVMTQSPSSLTVTAGEKVTMSCKSSQSLLNSGNQKNYLTWYQQKPGQPPKLLIYWASTRESGVPDRFTGSGSGTDFTLTINSVQAEDLAVYYCQNDYSYPLFTFGSGTKLEIR
notes: murine IgG1
For the molecule B3, the binding result in assay [1], in assay [3], in assay [4] and in assay [2] was “binds” each time.

B4: 3P1E11.3B7 (antibody, mouse IgG1, V domains shown)
VH: QVQLQQSGAELARPGASVKLSCRASGYTFTSSWTQWVKQRPGQGLEWIGAIYPGDGDTRYTQKFKGKATLTADKSSSTAYMQLSSLASEDSAVYYCARHNSYGMDYWGQGTSVTVSS
VL: DIVMTQSPSSLTVTAGEKVTMSCKSSQSLLNSGNQKSYLTWYQQKPGQPPKLLIYWASTRESGVPDRFTGSGSGTDFTLTINSVQAEDLAVYYCQNDYSYPLFTFGSGTKLEIR
notes: murine IgG1
Consider B4, for which the binding result in assay [1], in assay [3], in assay [4] and in assay [2] was “binds” each time.

For the origin of these results see patent US20090252748A1 (Biogen, published 2009).
